From the supplement of paper PMC9170038

Test system: MS2 coat protein
Experiment: apparent KD of MS2 coat protein; designed switch direction (-1 OFF switch, 1 ON switch): -1; higher = weaker reporter binding
Method in brief: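 Designed RNA switches sharing common flanks were transcribed on Illumina chips by stalled E. coli RNA polymerase. They were titrated with SNAP-549-labelled MS2 coat protein, from 0.7 or 1.5 nM doubling to 3 µM, in Tris-HCl pH 7.5 buffer with KCl, MgCl2, BSA, DTT, tRNA and Tween-20. Titrations ran without input, with 200 uM small-molecule ligand, or with an oligonucleotide input. The apparent KD of each design is the median over its clusters, after curve-fitting of normalised cluster fluorescence.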

[1] = input ligand: microRNA oligo, concentration not stated
[2] = Eterna round: R95, input ligand: microRNA oligo, concentration not stated
[3] = Eterna round: R95, input ligand: FMN 200 uM
[4] = Eterna round: R95, input ligand: none

Sequence | apparent KD of MS2 coat protein (input ligand: FMN 200 uM) [nM] | apparent KD of MS2 coat protein [1] [nM] | apparent KD of MS2 coat protein (input ligand: none) [nM] | apparent KD of MS2 coat protein [2] [nM] | apparent KD of MS2 coat protein [3] [nM] | apparent KD of MS2 coat protein [4] [nM]
GAACUGAGGCUUUGCUUUAGUCGUACAUGAGGAUCACCCAUGUAGGAUAUGGUAGGCUUUGCUUACCAGAAGGACAGAGUGAUC [JL EXNG3 1.21] (Eterna round: R96, puzzle: Exclusion NG 3) | 52.9 | 192 | 195 |  |  | 
CGAUGUUGUGUCAGGAUAUGCGUUGCGAAAGCAAUGUAGAAGGGACAUGAGGAUCACCCAUGUUCUAACCAUCG [Omei A 9] (puzzle: Brourd's mod of Exclusion 4) |  |  |  | 11.2 |  | 
ACAAGCUAAAUCAUAUCUUACAUGAGGAUCACCCAUGUUUUUGCAAUUAUGUUUGGCCUCCUUUGUGCUCGUCUUAU [JR_STOV1_Sub051] (Eterna round: R97, puzzle: Sensor, turn-off variant 1) | 16.4 |  | 16.7 |  |  | 
AAUAACAGGCCGAUCCUAAACAUGAGGAUCACCCAUGUGCUCGUCUUGUAAAGUACUAUCACGAAAGUGAUAGUACA [Sensor v3, turn-off variant 1 (MOD of Eli's v1-59 v.2 )] (puzzle: Sensor v3, turn-off variant 1) |  |  |  | 419 | 39.9 | 31.4
GAUUGACAUGAGGAUCACCCAUGUGAGGAUAUCGGCUGGACCGUGUUGGCUUCCGUCUCGAGAAGGCGCAUAGG [Exclusion 1 V43] (Eterna round: R96, puzzle: Exclusion 1) | 43.5 | 23.9 | 26.8 |  |  | 
ACAAAGCUAGGAUAUGUGGCGGAUAACAUGAGGAUCACCCAUGUGAGCUCACAGAUCCGAGCAGAAGGAGCGAUUA [EX5 A.10] (Eterna round: R97, puzzle: Exclusion 5) | 15.3 |  | 14.6 |  |  | 
AAUUUAUGAGGAUAUACAGUGUAAAACAUGAGGAUCACCCAUGUUCUUCAAUUAGUAUAUGUAGAAGGCAUAUGUA [JR_Ex5_Sub096] (Eterna round: R97, puzzle: Exclusion 5) | 15 |  | 13.7 |  |  | 
CUGAUGUGAGGAUAUGUGAUCUGCCUUCUAUGUAGAUGAUCACAGAAGGCACAUGAGGAUCACCCAUGUAGAUC [Ex4 - 3 - 26] (puzzle: Exclusion 4) |  |  |  | 69.7 |  | 
AAGAACGUAGGAUAUACAUGAGGAUCACCCAUGUGAGGAAGGAGUAGGAAGCGUGGAAGUAGAAGGACGGAGAG [JR_Exclu3_Sub075] (puzzle: Exclusion 3) |  |  |  | 39.4 | 27.9 | 29.3
CGGAUGUUAGGAUAUUAGUAGUAGUCAGAAAAGACUAUUACUGAGAAGGAACAUGAGGAUCACCCAUGUUUCCG [Mat - Exclusion 4 - Eli Mod - D44] (Eterna round: R97, puzzle: Exclusion 4) | 17 |  | 15.4 |  |  | 
GAAAACGCAGAGGAUAUUUCAGAUCAAAGCUGCAAAGAAGGCUGCACAUGAGGAUCACCCAUGUGGUCUUAAAA [Mod of Quesina 2 - Jieux - Exclusion 6] (Eterna round: R97, puzzle: Exclusion 6) | 337 |  | 23.8 |  |  | 
GAAAAGCUAGGAUAUACAUGAGGAUCACCCAUGUAAGGUCGCUUCUUAUAUAGGGCAUGUAGAAGGAGCAAAGA [Eneriner] (puzzle: Exclusion 3) |  |  |  | 35.9 | 70.6 | 32.1
UUAUAGUAUGUAGGAUAUCGGUCAGUUUCUGAUCGAGAAGGACAUGAGGAUCACCCAUGUAAGGCUACCGGUUUCUGGUGGCCG [JL ENG1 3.53] (Eterna round: R96, puzzle: Exclusion NG 1) | 122 | 16.5 | 26.1 |  |  | 
AAGAAACAUGAGGAUCACCCAUGUGAGGAUAUGUAAAAGAAAAUAAAAUAAAGAAGAAACAGAAGGCACAAAGG [Mat - Mod of Hog D20] (puzzle: Exclusion 1) |  |  |  | 43.4 | 53.4 | 43
GGAGGAGAGGUAAGGAUAUGGUGGUGGAAACACCACCAGAAGGUACAUGAGGAUCACCCAUGUAAGGAAGGAGG [AK-MS2ROC-r4-Bmoexclusion4-17.1] (Eterna round: R97, puzzle: Brourd's mod of Exclusion 4) | 26.7 |  | 26.6 |  |  | 
CUGGUCCGAGGAUAUAUUAUGUGAUACAUGAGGAUCACCCAUGUUAUAUGAUGGAUGUAAAUAGAAGGCGGACUAG [JL-ex5-3.15] (puzzle: Exclusion 5) |  |  |  | 43.4 | 48 | 58.5
CCUAUGUGAGGAUAUGUCUGGUCUUCUUUUAUUUUUUACAGACAGAAGGCACAUGAGGAUCACCCAUGUCAGAC [Ex4 - 3 - 48] (puzzle: Exclusion 4) |  |  |  | 23 |  | 

Sequence | apparent KD of MS2 coat protein (input ligand: FMN 200 uM) [nM] | apparent KD of MS2 coat protein [1] [nM] | apparent KD of MS2 coat protein (input ligand: none) [nM] | apparent KD of MS2 coat protein [2] [nM] | apparent KD of MS2 coat protein [3] [nM] | apparent KD of MS2 coat protein [4] [nM]
GCAUGGAGACAGGAUAUCCGCGCGAACAAAAUAGGAGAAGGGUCUACAUGAGGAUCACCCAUGUGACGGUAUCC [Aedenqu] (puzzle: Exclusion 6) |  |  |  | 21.7 | 62.2 | 27.2
CUCGAGUUAGGAUAUGGCGGCGACUGUGUUCGCAGAUCGCACCAGAAGGAACAUGAGGAUCACCCAUGUGACGG [Eternabot (L1) Solution 42] (Eterna round: R97, puzzle: Exclusion 4) | 348 |  | 89.7 |  |  | 
GUCGCUAGAGGAUAUACAAUGGUAUAUGAUCCUAGUGACAUACAUGAGGAUCACCCAUGUAGAAGGCUAGUAUU [Exclusion 2 - 8] (puzzle: Exclusion 2) |  |  |  | 23.7 |  | 
AAUGACUGAGGAUAUUGUACUGCUGACAUGAGGAUCACCCAUGUAUGCUAACUCGGCCGUCGAGAAGGCAGUCAUG [BotMod 24 - Jieux - Exclusion 5] (Eterna round: R97, puzzle: Exclusion 5) | 18.5 |  | 28 |  |  | 
CCAUCGAGUGUGAGGAUAUGCUGUUCCUAAGAGCAGCAGAAGGCACAUGAGGAUCACCCAUGUGGAUACGGUGG [Mat - Exclusion 4 - JL Mod - D81] (puzzle: Brourd's mod of Exclusion 4) |  |  |  | 29.2 | 172 | 31.1
GUUGUUGCGCAGGAUAUCCAGCGACUUGUCGAAGGAGAAGGGCGCACAUGAGGAUCACCCAUGUGCCUCUGUAA [EX6 B.20] (Eterna round: R97, puzzle: Exclusion 6) | 43 |  | 18.6 |  |  | 
CCGGAAAUAGAGGAUAUAGGACUGGAUACAGUCCUAGAAGGCUAUACAUGAGGAUCACCCAUGUGUCCUACCGG [Fiskers Ex 6 - 63] (puzzle: Exclusion 6) |  |  |  | 14.1 |  | 
GUAGAGUCAGGAUAUACGAAUAGAUCGAUAGAUCAAUCCAUACAUGAGGAUCACCCAUGUAGAAGGGACUCUAC [Mat - Exclusion 2 - Eli Mod - D15] (Eterna round: R97, puzzle: Exclusion 2) | 26.2 |  | 18.8 |  |  | 
AUAUUAGCAGGAUAUAUCCGGGAUAACAUGAGGAUCACCCAUGUGACCGCUUGAUAUCCUAUAGAAGGGCUUUAUA [Mod of ViennaUCT 29 - Jieux - Exclusion 5] (Eterna round: R97, puzzle: Exclusion 5) | 35.3 |  | 20.6 |  |  | 
GGCUAGUGAGGAUAUACGUGCACUCCUCAGUCGCCAGUCGGACAUGAGGAUCACCCAUGUAGAAGGUAUCGGCA [Qusoceus] (puzzle: Exclusion 2) |  |  |  | 24 |  | 
AGAAGAAAAGAGAUUUGCUCGUCUUAUAAGUAUGAAGUAACAUGAGGAUCACCCAUGUAAGUCUAGUGAGAAGGAAG [JR_SV3TOV2_Sub001] (puzzle: Sensor v3, turn-off variant 2) |  |  |  | 50 | 22.9 | 24.4
GUUUUCAGACGGAGAUCCUACAUGAGGAUCACCCAUGUCUCUCUUGUUUUUUGCUCGUCUUUUCCUCCUCUGUUCUC [Elimod 32 - Jieux - Sensor, turn-off variant 1] (Eterna round: R97, puzzle: Sensor, turn-off variant 1) | 447 |  | 515 |  |  | 
UGCCUAGCAGGAUAUGCUCGGGAUUACAUGAGGAUCACCCAUGUGACUGAUUGUUGUCUUGCAGAAGGGCUAGGGA [JL-EX5-4.05 ViennaUCT mod] (Eterna round: R97, puzzle: Exclusion 5) | 443 |  | 99.7 |  |  | 
ACUUCGUCAGGAUAUCGAGUGACCAAGUACACUGGCUUGGCUGAGAAGGGACAUGAGGAUCACCCAUGUGGGAG [Eternabot (L1) Solution 52] (Eterna round: R97, puzzle: Exclusion 4) | 356 |  | 187 |  |  | 
UGAGCUACAGGAUAUACAAGGCGACCGUGAGGUCGAAGGUUACAUGAGGAUCACCCAUGUAGAAGGGUAGUUCU [Mat - Exclusion 2 - JL Mod - D15] (Eterna round: R97, puzzle: Exclusion 2) | 130 |  | 126 |  |  | 
AAGAAGACAGGAUAUACAUGAAAGAAAGAAAAGAAAAGAAAACAUGAGGAUCACCCAUGUAGAAGGGUCAAGAA [EteRNA is fun!] (Eterna round: R96, puzzle: Exclusion 2) |  | 35.8 |  |  |  | 
ACAUGUUGCGCAGGAUAUGGGACACAUGAGGAUCACCCAUGUGGCUACAUGUCAUACCAAGCGUCUCAGAAGGGUGUUAACAUG [Ex NG2 #36] (Eterna round: R96, puzzle: Exclusion NG 2) | 20.1 | 14 | 17.7 |  |  | 
